# Reference: IntAct's records for PubMed 35512704
# B1: Speckle-type POZ protein (Homo sapiens), O43791 (parent)
# chain: MSRVPSPPPPAEMSSGPVAESWCYTQIKVVKFSYMWTINNFSFCREEMGEVIKSSTFSSGANDKLKWCLRVNPKGLDEESKDYLSLYLLLVSCPKSEVRAKFKFSILNAKGEETKAMESQRAYRFVQGKDWGFKKFIRRDFLLDEANGLLPDDKLTLFCEVSVVQDSVNISGQNTMNMVKVPECRLADELGGLWENSRFTDCCLCVAGQEFQAHKAILAARSPVFSAMFEHEMEESKKNRVEINDVEPEVFKEMMCFIYTGKAPNLDKMADDLLAAADKYALERLKVMCEDALCSNLSVENAAEILILADLHSADQLKTQAVDFINYHASDVLETSGWKSMVVSHPHLVAEAYRSLASAQCPFLGPPRKRLKQS
# partner: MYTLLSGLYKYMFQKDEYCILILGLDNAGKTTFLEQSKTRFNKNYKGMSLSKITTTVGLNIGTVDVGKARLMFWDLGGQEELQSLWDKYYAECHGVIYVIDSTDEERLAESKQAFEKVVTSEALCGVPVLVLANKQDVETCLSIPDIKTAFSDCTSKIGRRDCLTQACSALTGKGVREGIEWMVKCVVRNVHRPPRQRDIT
# B2: Speckle-type POZ protein (Homo sapiens), O43791 (parent)
# chain: B1 chain
# partner: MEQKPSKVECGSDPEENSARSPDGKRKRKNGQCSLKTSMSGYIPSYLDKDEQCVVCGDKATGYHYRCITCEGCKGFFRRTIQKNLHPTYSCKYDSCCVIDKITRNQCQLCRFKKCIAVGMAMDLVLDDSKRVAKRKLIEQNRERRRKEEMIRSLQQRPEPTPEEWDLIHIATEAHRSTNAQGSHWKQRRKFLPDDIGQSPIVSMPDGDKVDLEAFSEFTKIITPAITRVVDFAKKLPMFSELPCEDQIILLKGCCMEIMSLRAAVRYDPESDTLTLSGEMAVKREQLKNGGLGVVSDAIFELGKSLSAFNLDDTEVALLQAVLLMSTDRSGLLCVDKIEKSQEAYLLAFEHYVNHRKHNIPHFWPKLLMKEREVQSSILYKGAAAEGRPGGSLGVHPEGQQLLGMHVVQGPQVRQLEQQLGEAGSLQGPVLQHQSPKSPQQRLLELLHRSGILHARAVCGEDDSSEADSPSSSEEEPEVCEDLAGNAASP
# B3: Speckle-type POZ protein (Homo sapiens), O43791 (parent)
# chain: B1 chain
# partner: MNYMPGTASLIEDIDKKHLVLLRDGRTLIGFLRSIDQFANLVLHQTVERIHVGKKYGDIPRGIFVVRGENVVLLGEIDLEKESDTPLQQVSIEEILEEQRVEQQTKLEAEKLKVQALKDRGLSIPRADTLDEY
# B4: Speckle-type POZ protein (Homo sapiens), O43791 (parent)
# chain: B1 chain
# partner: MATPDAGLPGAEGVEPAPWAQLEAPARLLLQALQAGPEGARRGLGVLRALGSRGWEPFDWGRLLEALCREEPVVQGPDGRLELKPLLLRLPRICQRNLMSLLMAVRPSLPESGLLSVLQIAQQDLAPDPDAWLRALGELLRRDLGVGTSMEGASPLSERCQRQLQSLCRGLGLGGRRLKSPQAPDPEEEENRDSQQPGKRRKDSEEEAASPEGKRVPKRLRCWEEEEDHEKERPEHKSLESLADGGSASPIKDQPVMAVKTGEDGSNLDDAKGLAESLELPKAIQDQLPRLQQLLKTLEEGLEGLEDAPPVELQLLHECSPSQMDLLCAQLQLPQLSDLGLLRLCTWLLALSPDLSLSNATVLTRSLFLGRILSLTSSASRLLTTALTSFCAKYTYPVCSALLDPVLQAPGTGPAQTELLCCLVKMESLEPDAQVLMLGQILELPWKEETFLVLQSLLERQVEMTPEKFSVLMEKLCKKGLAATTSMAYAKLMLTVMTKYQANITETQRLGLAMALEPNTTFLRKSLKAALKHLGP
# B5: Speckle-type POZ protein (Homo sapiens), O43791 (parent)
# chain: B1 chain
# partner: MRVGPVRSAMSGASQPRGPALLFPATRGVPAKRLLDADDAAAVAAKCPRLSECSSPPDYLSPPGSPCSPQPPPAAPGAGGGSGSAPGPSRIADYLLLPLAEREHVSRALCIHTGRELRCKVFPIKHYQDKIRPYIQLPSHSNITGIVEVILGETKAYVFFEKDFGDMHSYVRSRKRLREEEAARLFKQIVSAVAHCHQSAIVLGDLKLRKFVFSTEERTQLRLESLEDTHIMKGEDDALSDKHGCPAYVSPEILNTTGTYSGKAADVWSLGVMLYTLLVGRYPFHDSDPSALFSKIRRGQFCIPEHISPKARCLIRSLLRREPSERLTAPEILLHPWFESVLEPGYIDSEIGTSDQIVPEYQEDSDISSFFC
# B6: Speckle-type POZ protein (Homo sapiens), O43791 (parent)
# chain: B1 chain
# partner: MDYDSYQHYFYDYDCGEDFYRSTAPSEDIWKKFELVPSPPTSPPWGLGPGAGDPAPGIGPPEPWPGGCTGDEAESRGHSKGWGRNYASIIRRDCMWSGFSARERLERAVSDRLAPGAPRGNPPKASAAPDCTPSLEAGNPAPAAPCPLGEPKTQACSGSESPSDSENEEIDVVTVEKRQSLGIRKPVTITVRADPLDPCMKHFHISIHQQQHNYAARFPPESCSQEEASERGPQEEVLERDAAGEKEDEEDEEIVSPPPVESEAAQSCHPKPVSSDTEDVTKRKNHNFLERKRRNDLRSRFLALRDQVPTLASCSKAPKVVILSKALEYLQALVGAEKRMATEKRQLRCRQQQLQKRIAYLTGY
# B7: Speckle-type POZ protein (Homo sapiens), O43791 (parent)
# chain: B1 chain
# partner: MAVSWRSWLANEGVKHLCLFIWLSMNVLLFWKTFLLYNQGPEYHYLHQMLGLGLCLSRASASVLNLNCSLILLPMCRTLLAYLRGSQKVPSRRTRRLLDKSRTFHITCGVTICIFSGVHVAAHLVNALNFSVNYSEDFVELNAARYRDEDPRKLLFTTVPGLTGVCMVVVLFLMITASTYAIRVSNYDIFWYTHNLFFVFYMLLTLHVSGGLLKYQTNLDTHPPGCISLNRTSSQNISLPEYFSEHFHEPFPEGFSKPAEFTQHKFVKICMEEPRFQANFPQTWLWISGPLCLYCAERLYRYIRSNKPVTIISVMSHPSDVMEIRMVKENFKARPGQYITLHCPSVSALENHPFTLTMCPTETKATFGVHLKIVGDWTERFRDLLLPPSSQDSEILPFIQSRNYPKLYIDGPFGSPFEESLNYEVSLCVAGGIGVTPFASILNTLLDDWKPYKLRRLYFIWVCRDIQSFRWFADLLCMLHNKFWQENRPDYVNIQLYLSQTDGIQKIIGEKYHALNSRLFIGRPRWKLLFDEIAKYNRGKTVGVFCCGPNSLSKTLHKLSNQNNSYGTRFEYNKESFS
# B8: Speckle-type POZ protein (Homo sapiens), O43791 (parent)
# chain: B1 chain
# partner: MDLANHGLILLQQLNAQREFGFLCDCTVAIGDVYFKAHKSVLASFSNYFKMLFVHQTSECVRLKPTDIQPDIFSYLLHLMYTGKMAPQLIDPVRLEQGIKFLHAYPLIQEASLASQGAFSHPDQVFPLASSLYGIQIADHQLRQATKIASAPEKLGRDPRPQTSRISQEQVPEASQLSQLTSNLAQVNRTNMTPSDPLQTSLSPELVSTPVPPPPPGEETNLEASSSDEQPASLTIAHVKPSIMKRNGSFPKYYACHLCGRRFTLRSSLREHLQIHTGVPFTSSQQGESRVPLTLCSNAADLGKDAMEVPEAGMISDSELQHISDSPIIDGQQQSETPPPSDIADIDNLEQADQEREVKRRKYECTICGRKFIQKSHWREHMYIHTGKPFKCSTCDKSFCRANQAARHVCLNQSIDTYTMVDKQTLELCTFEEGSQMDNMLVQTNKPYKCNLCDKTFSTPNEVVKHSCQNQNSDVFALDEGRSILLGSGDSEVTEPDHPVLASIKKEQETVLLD
# Variants of: B1
# Settings: with arfrp_human ARFRP1, Q13795
row,Variant,effect of a mutation on the interaction
1,Y87C,with no effect

# Variants of: B2
# Settings: with tha_human THRA
row,Variant,effect of a mutation on the interaction
1,F133V,with no effect

# Variants of: B2
# Settings: with tha_human THRA
# Remark: another data set of the same source
row,Variant,effect of a mutation on the interaction
1,F133L,with no effect

# Variants of: B2
# Settings: with tha_human THRA
# Remark: another data set of the same source
row,Variant,effect of a mutation on the interaction
1,F102C,with no effect

# Variants of: B2
# Settings: with tha_human THRA
# Remark: another data set of the same source
row,Variant,effect of a mutation on the interaction
1,Y87C,with no effect

# Variants of: B3
# Settings: with lsm1_human LSM1, O15116
row,Variant,effect of a mutation on the interaction
1,Y87C,with no effect

# Variants of: B3
# Settings: with lsm1_human LSM1, O15116
# Remark: another data set of the same source
row,Variant,effect of a mutation on the interaction
1,F133V,with no effect

# Variants of: B3
# Settings: with lsm1_human LSM1, O15116
# Remark: another data set of the same source
row,Variant,effect of a mutation on the interaction
1,F133L,with no effect

# Variants of: B4
# Settings: with fance_human FANCE
row,Variant,effect of a mutation on the interaction
1,Y87C,with no effect

# Variants of: B5
# Settings: with trib1_human TRIB1, Q96RU8
row,Variant,effect of a mutation on the interaction
1,F102C,with no effect

# Variants of: B5
# Settings: with trib1_human TRIB1, Q96RU8
# Remark: another data set of the same source
row,Variant,effect of a mutation on the interaction
1,Y87C,with no effect

# Variants of: B5
# Settings: with trib1_human TRIB1, Q96RU8
# Remark: another data set of the same source
row,Variant,effect of a mutation on the interaction
1,F133L,causing an interaction

# Variants of: B5
# Settings: with trib1_human TRIB1, Q96RU8
# Remark: another data set of the same source
row,Variant,effect of a mutation on the interaction
1,F133V,causing an interaction

# Variants of: B6
# Settings: with mycl_human MYCL
row,Variant,effect of a mutation on the interaction
1,Y87C,with no effect

# Variants of: B6
# Settings: with mycl_human MYCL
# Remark: another data set of the same source
row,Variant,effect of a mutation on the interaction
1,F133L,with no effect

# Variants of: B7
# Settings: with nox4_human NOX4, Q9NPH5
row,Variant,effect of a mutation on the interaction
1,Y87C,with no effect

# Variants of: B8
# Settings: with zbtb2_human ZBTB2, Q8N680
row,Variant,effect of a mutation on the interaction
1,Y87C,with no effect
